Data reported in the domain aggregation screens of Martell et al. (2025).

Test: soluble fraction after stress (log2 fold change); higher = more stays soluble; pooled small domains, quantitative proteomics
Details: stress: pH 4
Method in brief: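 Custom libraries of small protein domains were pooled and measured with high-throughput quantitative proteomics after pH 4 stress. The read-out is the fold change in the amount of each domain that stays soluble after the acid stress, taken as a measure of aggregation propensity. Fold changes are on a log2 scale, and higher values mean more of the domain stayed soluble.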

HMKALYNLDYEKPLSGSYYTETTARAAVPTDIRKLGLIITYKTDATTNITEQFVGSSISAWTTSGNWKSLG
soluble fraction (log2): 0.105

HMKWGDTPTVEVPNLIGMKKKDLQTQLVDLKLDISGDGEKVIKQSPEAGAKVKEGSKIRIYFG
soluble fraction (log2): -0.0575

HMARKTIFHSLLGELEQRIGRLPAGTILPAEQALADEYGVSKPTLRRALAELAEHGLITKENGIGSVVI
soluble fraction (log2): ≥ 0.43

HMSQPYFELAAADMEALRNALSTIREIESVVLSGKIFHVEVREDLDPGTMNKLAFERGITLTHLVKKKN
soluble fraction (log2): -1.06

HMFNPEQDPKQLTGRERAVADLIGLGANNAEIAIRLSMSERTVKAHLTSIFQQLNVRDRVQLALVMNQL
soluble fraction (log2): -0.541

HMPDVAIMNVSVEPEKKVVRLQVKAISLEALLDFSTRLEAIPARVELQNHTPSKELSQKWAVNATLIVIY
soluble fraction (log2): -0.0366

HMFTLNEIIGQKIRNARISAGLTLDELSKMTGISAAQLSSLETGYRRANIDTLYAIAKAIGIDVSNLLKY
soluble fraction (log2): -0.626

HMGNIADARRDASYVFLIGEWAKSSNLTEKKLAGLIQSNHLDIKYGITVTDVIADIRKYKNDPTYNPF
soluble fraction (log2): 0.312

HMPEVYPFEVAEDDAGKRLDVFLSEEIEEFTRSFIQKLIAGGLASVNRAPARASYRVKPRDLVELQVPE
soluble fraction (log2): -0.158

HMFSSVSVPAELSNQRFDKVVAELTPDLSRSKIKQLILLGKVLLNGEVTPPKQKVETGDEIEIFYTRQIE
soluble fraction (log2): -0.23

HMATVTVPNLKGMTPSGAESALAELNLKGAVGDSVESNDVENGKVASQDQAAGSDAKEGDTITYHLSS
soluble fraction (log2): -0.103

HMVVLPPTEDAPEWAQVFDRLGRPESADGYKLPVPEGADPAFAKLASAKMHELGLSAKQGAALAAWWNEQA
soluble fraction (log2): -0.332

HMQRDTIAISAIPTAIKTYLSSTYPTDTLVHAFVNKDQSIVVISKNIDFYATSFSTANAFIKRIQLPA
soluble fraction (log2): 0.156

HMELEWENYSLAGEIKTTVMLYQNRRNGLPEEAKQKADALMKQLKQAVIENDAQKVEKIDDALTALLFE
soluble fraction (log2): -0.249

HMVDPELFIWVESSKEPVYHLAYKIELFVHSTDPQDDVPVHRWQVFVDAHNGNILDKFDEVR
soluble fraction (log2): -1.65

HMSDHYEVLGVDRNATDDQIKKAYRRLARELHPDVNDAPESQEKFKLVTHAYEVLSDPDERRKYDMG
soluble fraction (log2): 0.056

HMSAETREELVGREGVSLTDLRPSGFALFGQEKIDVVSESEFIEEGTSVRIVSVEGSRHIVRAKR
soluble fraction (log2): -1.24

HMNELIGVEQLQDLREAIADHGFAEQRVLNWLYQATKGQVSRLEQLPLPMLTTLHKKLGQWADAEAAASSA
soluble fraction (log2): -0.499

HMTDAEQHEALLFKQVVDGLPQTLRDTFVLSRHAGMTYAEISAHTGTPIKTVESRMAKALELIAQRMR
soluble fraction (log2): 0.0158

HMKEVDERPWGKYEVLLDAPDVKVKRITVNPGQRLSYQYHEKRAEVWTVVSGILTIILEDDKLFRG
soluble fraction (log2): 0.0694

HMFPNQLLISRLSNQLSASERFAAVSSIAQLKNIDYDVLHVLVHTMNSDPNSNVRLAALEALSR
soluble fraction (log2): -0.313

HMINKIANLSAELRMEGLPVSIRSTQAAVKIYMDLGGDDRNLLKTALMSIYVKDRYDIPKFNKVFEKLFA
soluble fraction (log2): 0.0706

HMADQIIEGILGKEGGYVNNPNDKGGPTRWGITQTTARAYGYSGDMKALPRDTAKAIYLSQYWT
soluble fraction (log2): -0.218

HMGISVEVPDLKNMSVAEAGSLLKNSGLSYAVVDSDYVKTISPGKILDQNPGRGLRVKKGRIVYLTINSL
soluble fraction (log2): -0.283

HMKSIFIRADELAAELDVSKALAYKMINQWNEELKAKGYTTVGGRVSRQYYYEKIYGAENVFDF
soluble fraction (log2): -1.78

HMDGEMRRKRILQLLSEQTKPLSGTALAKQFGVSRQVIVQDIALLKSKEPAIISTYRGYVLGR
soluble fraction (log2): 0.142

HMDKLEKRILDYLLQKSAIDGSTILKISHREMAMDLGTAREVVTRILKKLETGGFVRQGENYLEILK
soluble fraction (log2): -0.456

HMDNPKGNLQEAVQAKGNEPIEYRVLNVDGPDHAREFKIAVFIGGKRKGTGVGNSKKKAEEIAAEKAFKRM
soluble fraction (log2): -0.189

HMSKNYYEILGVTPDVELSQLKAVYRRLVRKYHPDINPDGELIFKDITEAYEVLSDEKQRKQYDMINGF
soluble fraction (log2): -0.362

HMANYYEILGVKHDATEAEIKAAYKQAAKSAHPDAGGSNEKMQEVNAAWEVLGNAQKRAEYDARMA
soluble fraction (log2): 0.349

HMEANPLTDREKEVLELVADGKNTKEIAQELSIKSGTVRNYISMILEKLEVKNRIEAITRSKEKGWF
soluble fraction (log2): -0.025

HMVSVEELLSSLDPNEATVLKLLAERSSGVDELMERSGLDFSALSEAITNLELFGYIAREMDGVYSFS
soluble fraction (log2): -1.78

HMDEMEFQKYVDQNLKQKGISLTAEAKAELLLRLGGDTMLLHSAIEKLDLYGEKNLNLNDIKHLVSLNSDV
soluble fraction (log2): 0.0232

HMNEMSDTITRLLDAAETGIRLRGYHAVSFRDLAEELGIKSSSVHYYFRQKEDLGLAVVERY
soluble fraction (log2): -0.185

HMYSVVGKKGIVIEDINYSTGTGQIKSEGEVWSAKTNEQINIPKGTEIEIESIDGVKVIVKPL
soluble fraction (log2): 0.221

HMKPPTIELSYSEFIELVERGKVSKVIFSSDNYTLKGETVNGENFETVRPPFLEDNLSEILTIHKVPVSSE
soluble fraction (log2): -0.785

HMNEKAALIFNEWSDFVSKDDEANAQIKFDELITLYKKTGYTKIALLEVATKQASNGDIEGALAKYSLLID
soluble fraction (log2): -0.919

HMGIPIEAYHESLHRHYIDLWELLDTGKETLIDAEGNEVDKIHLLNAIRFNVNGMLHELLKE
soluble fraction (log2): -1.48

HMGVNEGVNKLFKTIQETPGKRMPYYALATDVPEKTIERWLKQLREEGKIEFKGSAKTGGYFVIDK
soluble fraction (log2): 0.22

HMSFSSLSNDILSEIQKDNNITYDELSEKLQKDRATIYRNMKKLVENGLLKRVGGRKSGHWEIIE
soluble fraction (log2): ≥ 0.43

HMTELPLTPRSKRILEMSALEARRLNHSYIGTEHLLMAIIRDGDGVAAKILESLGVNLPNFYTDTVRSIE
soluble fraction (log2): -0.0691

HMETYTVPEVLGLTPEQAAQLPEVKDIFTLDVKEEGDFSDKPVGTIVRQSPTEGEHRKGDNLVIEVWLSV
soluble fraction (log2): -0.269

HMAVPTHVEFPVVGLQRSGITSLEQAIATVPGVSKAVVNVSDNRIFVDYDPTRSKVSDLLEVVRGAGFTP
soluble fraction (log2): -0.222

HMGVRDIRIFERNNSFFVNAEIRGEAQLSVPITRTDYQLFKENKIDALSLVEKYYAEELNASNEMK
soluble fraction (log2): 0.155

HMNDNQNKQMLWELLKDNRAFDNFDNKDYKTIIHLFNETVNTIDHRTPNLDLIKKNKIFIQDIMQKLSNL
soluble fraction (log2): -1.04

HMVPQEVLPITLIIDGKLIEENLLYAKMTEQVLIQQLDINNIKSIKQILFAGLDSFGNFFYQEKQN
soluble fraction (log2): -1.91

HMNFTETENRIYEEILKNVKQHKKKTVVQIAEKVDVAPSYVIKVAKKLGYSGLNEMWYSLSGIY
soluble fraction (log2): -0.0318

HMNEWVSVEERLPTDERPVLAFIGYADTMNGFITTSYYFRFDPDPHWLGEGLIPVGLKTLFWMPLPAP
soluble fraction (log2): -0.0414

HMSGSPREQAESEYRKAIAAVNQGRVSEATESLRAALRLDAFQVAARQLLVKLLLEAKNQDEAIQVLR
soluble fraction (log2): -0.489

HMQTKSDMVYHRVREDIVNGVFAPGERLLISAVAKQYGVSEIPVREAFRVLSQEGFLKTRPNSGFVVS
soluble fraction (log2): -0.294

HMNPGAYQVKAGEGLIGLSRRYNVPVDVLASVNNLNTTSSLRVGQTITIPTAAQVNRITQQAQ
soluble fraction (log2): 0.254

HMGWQPDPLTTRERLVAELATQASNAQIAEQLHLSVRTVEGHLAHVYTKLGITTRRELPAALAGAR
soluble fraction (log2): -2.8e-05

HMALHLPTTTINGRQYYYFKSKEKITVYGLSKRLGLTRQEIVEHNPSAVDGIKRGSTLYFPVDEFAD
soluble fraction (log2): -0.074

HMGLDMSLEREQHRALREASQWYARLADEQVDSDAERAWRHWVAADEANQRAWQYIEAVSQRFDG
soluble fraction (log2): -0.829

HMDFDLIAIFEEQFARALSPIEINIIKEWKNSNYSDDMIVKALKEAVKSQVFNFRYIERILINWSQNG
soluble fraction (log2): -1.64

HMQADEENPKYPVITDGVIQLEVLESIDKTEEWLVERLAKDGYNNVSEIFIAEYENGNLSIVT
soluble fraction (log2): -0.742

HMTGVEAIERYLASGVIPGVGPVLAKRLVERFGARTLEVIEDSPRRLTQVPGIGRQKARQIHQALKAQRE
soluble fraction (log2): 0.0508

HMAAPELLTVRERQVAALISDGLSNQQIAHRLHLEVTTVKAHIGSIFNRLDMNNRVQIAIWAHDRQLVFS
soluble fraction (log2): 0.0815

HMSQLLHELLAHVLKDRIISGEWPAGSRIMSEHALQERYGVSRGTVRRALAQLVQEGLLVQRKGKGTFVTR
soluble fraction (log2): 0.35

HMYIDLHEIWKSLTDEEQTVVKLLETEPAHVDTLIENSQIPASRILATLTLLEVRGIVKRLPGRMFSLAD
soluble fraction (log2): -0.571

HMNETLKQIRINALQYSEKDMATKLGLPLSEYKEIENDKPLNFTLLIRLSQAVGKTIDDLLNAQ
soluble fraction (log2): -0.128

HMEVPNLIGMTDKDLQRTYFQLPIEAAGDGSVVIKQLPEPGEKVKEGSVIRVLLG
soluble fraction (log2): 0.00722

HMSPSLVEAMRLRMYEMGLNQAKLSELLGVSPSRVSDYLTGRSEPTLKVARDISRKLNIDASIVLG
soluble fraction (log2): -0.0682

HMGKSDDSLAAEKFIQHVRKNGELSYEQAYRMVHAYFPDFRNFEGMVSGAVKSGYLILIQKSTGLFLRAKE
soluble fraction (log2): -0.205

HMRDTAKTLLAMEVVGENNKKNLQAFGIQKGDQNYQTAVVVRLMQKALMEGDTSAIRLIGELTGD
soluble fraction (log2): -0.44

HMIEDMQQYIKEIRQMVSGRLDMTRNLEDEEIRDTIAELVAEESRKQYMTLTEKREVIEGVFNSMR
soluble fraction (log2): -0.687

HMKIDLPIWLNKKAWEAWVEYKKERKQKLTPSIIKFQLRILEKNKEDHPEIIRNSITNGWTGLFPLK
soluble fraction (log2): -0.347

HMEPELSVDMKPLDGLLLAIKKELQAAQMYTRLARASADAEQKMVFEQLANMEKGHKARLEDIYT
soluble fraction (log2): -0.348

HMAFKDDDVQKAYDRYMDRYGELSVLYSDNGLKVDDDLFYKNNIPPNGKFTKEFFDELYELVNMEFINNY
soluble fraction (log2): -0.538

HMENVQLRNFAIKATEAGIIKLSSDQRTFMWASNQKKLMTVPFDEHPYSAMAQFFKTDEGLAVFKSIEKKL
soluble fraction (log2): -0.428

HMSVPVDEVLAALTQKLTDLRTQAMAAKDFSAVDALKAALTEAGVEVRMSKTGVELIAGPRVDAKKLGTL
soluble fraction (log2): -0.268

HMAQLSDMLTYLRKRKGLSQQELANTLKISRSAIGMYETGKREPDLETLEVFADFYNVDMNTLTGKA
soluble fraction (log2): 0.192

HMTVTLTTLRNGSTGAQVKTLQRLLSAMDYYNGETDGKFGISTAAAVKAFQRAKRLTVDGIVGKNTWTALL
soluble fraction (log2): -0.0337

HMPDLSYVDEVLNRYKGHKGTLITVLQQVQAHKGYLEKEALERVARSMGVPTARIYGVVTFYAQFR
soluble fraction (log2): 0.099

HMLKLEDIKKDAQVKGIVDGQIVRIVTVEPIGDHALTVYYKDHQGQFAERMLFRSDELNLELATA
soluble fraction (log2): -0.64

HMQKPDIEVDFAEGDMVVVTGGAWKDTAGVITGINMQKQTVTINVELFGRETPVEISFTEIKKA
soluble fraction (log2): -0.799
